Results on 1 molecule are retold here after patent US20230002466A1 (ELPIS BIOPHARMACEUTICALS, published 2023).

Experiment [1] addresses T1, human IL2Rβ (human, UniProt P14784 27-239).
T1 construct: also called IL2β; CD122
T1 sequence (looked up): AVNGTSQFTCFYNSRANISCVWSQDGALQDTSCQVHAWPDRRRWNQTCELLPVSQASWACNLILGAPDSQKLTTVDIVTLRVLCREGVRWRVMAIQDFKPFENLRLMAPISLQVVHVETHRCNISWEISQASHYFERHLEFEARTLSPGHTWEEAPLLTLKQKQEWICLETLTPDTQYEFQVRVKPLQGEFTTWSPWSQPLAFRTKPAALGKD
Description: SPR, receptor captured on Protein A chip, mammalian-produced IL2. The method, then:
The assay was run with Biacore T200 control software version 2.0. For each cycle, 1 μg/mL of human IL2Rβ or IL2Rα was captured for 60 seconds at flow rate of 10 μL/min on flow cell 2 in 1×HBST buffer on Protein A sensor chip. Two-fold serial diluted HIS tag purified engineered IL2 mutant was injected onto both reference flow cell 1 and IL2Rβ or IL2Rα captured flow cell 2 for 150 seconds at flow rate of 30 μL/min followed by washing for 300 seconds. The flow cells were then regenerated with Glycine pH 2 for 40 seconds at a flow rate of 30 μL/mins. Eight concentration points from 0 to 100 nM were assayed for each IL2Rβ agonist clone 96-well plate format. The kinetics data was analyzed with Biacore T200 evaluation software 3000. The specific binding response unit was derived from subtraction of binding to reference flow cell 1 from target flow cell 2.

In experiment [2] the target is T2, human IL2Rα Fc fusion protein (human, UniProt P01589 22-213, limits assumed).
T2 construct: also called Recombinant Fc-tagged human IL2Rα; not shown: Fc
T2 sequence (looked up): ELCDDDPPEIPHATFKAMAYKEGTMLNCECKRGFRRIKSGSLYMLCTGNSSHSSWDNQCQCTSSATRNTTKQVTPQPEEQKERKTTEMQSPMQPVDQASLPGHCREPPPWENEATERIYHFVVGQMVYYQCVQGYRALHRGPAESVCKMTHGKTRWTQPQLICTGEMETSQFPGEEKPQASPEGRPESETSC
Description: ELISA, receptor-Fc coated, anti-Flag HRP; Table 9 ELISA: titration 100 nM to 0 nM, anti-Flag HRP detection. The method, then: Briefly, 384 well plate was immobilized with human IL2Rα and IL2Rβ Fc fusion proteins at a final concentration of 2 ug/mL in 1×PBS in total volume of 25 uL per well. The plate was incubated overnight at 4 C and blocked with 80 uL of superblock per well for 1 hour. […] Each dilution was added to IL2Rα or IL2Rβ wells in parallel in duplicates. The IL2 mutant binding was detected by adding 25 uL of anti-Flag HRP diluted at 1:5000 in 1×PBST. In between each step, the plate was washed three times with 1×PBST using a plate washer. The plate was then developed with 25 uL of TMB substrate for five minutes and stopped by adding 25 ul of 2N sulfuric acid. The plate was read at OD450 nm Biotek plate reader and the EC50 was analyzed with Prism 8.1 software to generate EC50 values (FIG. 15A for IL2Rα, and FIG. 15B for IL2Rβ, summarized in Table 9).

Experiment [3] addresses T3, human IL2Rβ Fc fusion protein (human, UniProt P14784 27-239).
T3 construct: also called Recombinant Fc-tagged human IL2Rβ; not shown: Fc
T3 sequence (looked up): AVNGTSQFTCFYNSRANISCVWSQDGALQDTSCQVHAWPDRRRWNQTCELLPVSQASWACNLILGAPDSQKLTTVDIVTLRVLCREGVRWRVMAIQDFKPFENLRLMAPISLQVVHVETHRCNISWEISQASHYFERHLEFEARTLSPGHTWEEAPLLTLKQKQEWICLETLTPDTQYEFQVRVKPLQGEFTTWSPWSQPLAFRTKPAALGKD
Description: ELISA, receptor-Fc coated, anti-Flag HRP. Summed up:
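Plates coated overnight at 4 C with IL2Rα or IL2Rβ Fc fusion at 2 ug/mL, then blocked. Flag-tagged IL2 mutant dilutions were added in duplicate, and binding was detected with anti-Flag HRP (1:5000) and TMB for 5 min. EC50 was fitted from OD450.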

For experiment [4], the target named is T1, human IL2Rβ. Description: SPR, receptor captured on Protein A chip, E. coli-produced IL2.
Experiment [5] deals with T1, human IL2Rβ. Nature of the experiment: SPR, IL2Rβ captured on Protein A chip. The method, then:
The assay was run with Biacore T200 control software version 2.0. For each cycle, 1 ug/mL of human IL2Rβ was captured for 60 seconds at flow rate of 10 uL/min on flow cell 2 in 1×HBSP buffer on Protein A sensor chip. 100 nM of HIS and Flag tag purified each IL2 mutant was 2-fold serial diluted and injected onto both reference flow cell 1 and IL2Rβ captured flow cell 2 for 150 seconds at flow rate of 30 uL/min followed by washing for 300 seconds. The flow cells were then regenerated with Glycine pH2 for 60 seconds at a flow rate of 30 uL/min. The assay was set up with 8 serial diluted concentration points in 96-well format. The kinetics data was analyzed with Biacore T200 evaluation software 3.0. The specific binding response unit was derived from subtraction of binding to reference flow cell 1 from target flow cell 2 (FIGS. 16A-16F, Table 10).

Experiment [6] addresses T3, human IL2Rβ Fc fusion protein. Nature of the experiment: ELISA, Fc-tagged receptor coated, anti-HisTag-HRP. Summed up:
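IL2 mutants, diluted from 1000 nM to 0 nM, were incubated 2 h at RT on plates coated overnight at 4 °C with Fc-tagged human IL2Rα (or IL2Rβ). Bound protein detected with anti-HisTag-HRP (1:5000, 1 h) and TMB. Absorbance read at 450 nm after acid stop.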

B1: EP001 (ligand)
chain: APTSSSTKKTQLQLEHLLLDLQMILNGINNYKNPKLTRMLTFKFYMPKKATELKHLQCLEEELKPLEEVLNLAQSKNFHLTARDAVDNMRVIIQELKGSETTFMCEYADETATIVEFLNRWITFCQSIISTLT
notes: Produced in E. coli or mammalian cells; also called EP0001; not shown: C-terminal Flag and 6xHis tags
Turning to B1, the dissociation constant Kd worked out at 0.743 nM in experiment [1], 1.12 nM in experiment [4] and 1.52 nM in experiment [5]. Further, the off-rate (koff) in experiment [1] came out at 0.00417 s⁻¹; in experiment [4] it was 0.00365 s⁻¹; in experiment [5], 0.00589 s⁻¹. The on-rate (kon) was 5.61e+06 M⁻¹ s⁻¹ in experiment [1], 3.26e+06 M⁻¹ s⁻¹ in experiment [4] and 3.86e+06 M⁻¹ s⁻¹ in experiment [5]. For the same molecule, the “relative activity IL2Rβ (KD: fold) against WT IL2” value was found to be 1360 fold in experiment [1] and 3890 fold in experiment [4]. In addition, the values for the EC50 in experiment [2], in experiment [3] and in experiment [6] were 259 nM, 0.7 nM and 8.1 nM, respectively.
